Test results: article doi:10.1101/2022.06.27.497840 (bioRxiv, 2022)

T1: MBP-Mlh2 (Saccharomyces cerevisiae (SK1), UniProt Q07980 1-695)
T1 sequence: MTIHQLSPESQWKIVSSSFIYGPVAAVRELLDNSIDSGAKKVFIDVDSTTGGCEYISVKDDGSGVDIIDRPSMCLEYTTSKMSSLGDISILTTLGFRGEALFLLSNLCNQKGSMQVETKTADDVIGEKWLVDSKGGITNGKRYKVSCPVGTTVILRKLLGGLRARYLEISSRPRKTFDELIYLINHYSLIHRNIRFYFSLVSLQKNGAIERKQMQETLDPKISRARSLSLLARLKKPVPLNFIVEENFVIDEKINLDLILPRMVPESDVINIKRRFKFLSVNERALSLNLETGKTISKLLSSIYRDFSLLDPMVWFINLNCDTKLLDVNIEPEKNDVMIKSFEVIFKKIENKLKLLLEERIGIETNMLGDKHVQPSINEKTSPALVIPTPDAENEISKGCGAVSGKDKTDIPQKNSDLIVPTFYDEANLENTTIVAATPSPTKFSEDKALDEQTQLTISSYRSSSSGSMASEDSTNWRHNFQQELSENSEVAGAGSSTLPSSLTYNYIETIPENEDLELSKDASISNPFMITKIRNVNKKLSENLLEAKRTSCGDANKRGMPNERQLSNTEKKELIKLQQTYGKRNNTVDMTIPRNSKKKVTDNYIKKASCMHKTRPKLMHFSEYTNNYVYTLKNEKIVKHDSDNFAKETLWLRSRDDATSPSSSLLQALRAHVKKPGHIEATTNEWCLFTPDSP

T2: MBP-Mlh1/MBP-Mlh2 complex (Saccharomyces cerevisiae (SK1), UniProt P38920;Q07980)
T2 sequence 1: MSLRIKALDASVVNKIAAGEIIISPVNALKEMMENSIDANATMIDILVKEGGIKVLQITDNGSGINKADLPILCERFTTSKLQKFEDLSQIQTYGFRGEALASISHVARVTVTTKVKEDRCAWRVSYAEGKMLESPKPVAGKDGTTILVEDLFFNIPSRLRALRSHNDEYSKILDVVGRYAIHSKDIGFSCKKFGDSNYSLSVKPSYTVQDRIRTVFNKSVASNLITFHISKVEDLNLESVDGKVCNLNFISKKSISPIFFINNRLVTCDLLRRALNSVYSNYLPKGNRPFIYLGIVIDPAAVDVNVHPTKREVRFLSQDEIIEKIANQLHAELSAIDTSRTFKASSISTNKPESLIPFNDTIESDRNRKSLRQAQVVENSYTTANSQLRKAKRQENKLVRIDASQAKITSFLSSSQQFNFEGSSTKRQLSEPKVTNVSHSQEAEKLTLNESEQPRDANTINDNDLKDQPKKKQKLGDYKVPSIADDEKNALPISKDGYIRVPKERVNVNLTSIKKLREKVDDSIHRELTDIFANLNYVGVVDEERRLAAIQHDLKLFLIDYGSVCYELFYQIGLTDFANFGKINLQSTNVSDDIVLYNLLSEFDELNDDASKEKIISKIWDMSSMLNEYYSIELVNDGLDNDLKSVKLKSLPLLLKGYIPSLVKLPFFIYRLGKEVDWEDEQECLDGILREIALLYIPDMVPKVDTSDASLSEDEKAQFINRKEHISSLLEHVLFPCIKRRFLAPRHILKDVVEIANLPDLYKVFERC
T2 sequence 2: T1 sequence

T3: MBP-Mlh1 (Saccharomyces cerevisiae (SK1), UniProt P38920 1-769)
T3 sequence: T2 sequence 1

B1: Rmi1 (subunit of the Top3/Rmi1 complex as used in XL-MS) (natural protein)
chain: MSFSSILSQDITDDITPPAYSATLGSREQIVFRAYQNEPWLAGTASNLILDKKLVIVDRELLFQVLMVENITKSKLTQIDDIKTKLDPKKQKVDRLRSGAQGNGAKKYEVITQVDMEDDGNVADNNCAKENNSNNNSSAAKNKAVFKLTLQSKSGDVFFAINSTPISWSSCMLGSKIVILPGTVFNRGVFILKDSQVIFLGGINRVWNENRDQKFCDYLESKLQRDKQLVNGGSKKRKAND
B2: Top3/Rmi1 complex (as used in MST, XL-MS and D-loop assays) (complex)
chain 1: MKVLCVAEKNSIAKAVSQILGGGRSTSRDSGYMYVKNYDFMFSGFPFARNGANCEVTMTSVAGHLTGIDFSHDSHGWGKCAIQELFDAPLNEIMNNNQKKIASNIKREARNADYLMIWTDCDREGEYIGWEIWQEAKRGNRLIQNDQVYRAVFSHLERQHILNAARNPSRLDMKSVHAVGTRIEIDLRAGVTFTRLLTETLRNKLRNQATMTKDGAKHRGGNKNDSQVVSYGTCQFPTLGFVVDRFERIRNFVPEEFWYIQLVVENKDNGGTTTFQWDRGHLFDRLSVLTFYETCIETAGNVAQVVDLKSKPTTKYRPLPLTTVELQKNCARYLRLNAKQSLDAAEKLYQKGFISYPRTETDTFPHAMDLKSLVEKQAQLDQLAAGGRTAWASYAASLLQPENTSNNNKFKFPRSGSHDDKAHPPIHPIVSLGPEANVSPVERRVYEYVARHFLACCSEDAKGQSMTLVLDWAVERFSASGLVVLERNFLDVYPWARWETTKQLPRLEMNALVDIAKAEMKAGTTAPPKPMTESELILLMDTNGIGTDATIAEHIDKIQVRNYVRSEKVGKETYLQPTTLGVSLVHGFEAIGLEDSFAKPFQRREMEQDLKKICEGHASKTDVVKDIVEKYRKYWHKTNACKNTLLQVYDRVKASM
chain 2: B1 chain
B3: Top3/GST-Rmi1 complex (complex)
chain 1: B2 chain 1
chain 2: B1 chain
B4: Top3 (untagged, subunit of the Top3/Rmi1 complex) (enzyme)
chain: B2 chain 1
B5: His-tagged Sgs1(1-107) fragment (domain or fragment)
chain: MVTKPSHNLRREHKWLKETATLQEDKDFVFQAIQKHIANKRPKTNSPPTTPSKDECGPGTTNFITSIPASGPTNTATKQHEVMQTLSNDTEWLSYTATSNQYADVPM
B6: Sgs1(1-605) fragment, untagged (domain or fragment)
chain: MVTKPSHNLRREHKWLKETATLQEDKDFVFQAIQKHIANKRPKTNSPPTTPSKDECGPGTTNFITSIPASGPTNTATKQHEVMQTLSNDTEWLSYTATSNQYADVPMVDIPASTSVVSNPRTPNGSKTHNFNTFRPHMASSLVENDSSRNLGSRNNNKSVIDNSSIGKQLENDIKLEVIRLQGSLIMALKEQSKLLLQKCSIIESTSLSEDAKRLQLSRDIRPQLSNMSIRIDSLEKEIIKAKKDGMSKDQSKGRSQVSSQDDNIISSILPSPLEYNTSSRNSNLTSTTATTVTKALAITGAKQNITNNTGKNSNNDSNNDDLIQVLDDEDDIDCDPPVILKEGAPHSPAFPHLHMTSEEQDELTRRRNMRSREPVNYRIPDRDDPFDYVMGKSLRDDYPDVEREEDELTMEAEDDAHSSYMTTRDEEKEENELLNQSDFDFVVNDDLDPTQDTDYHDNMDVSANIQESSQEGDTRSTITLSQNKNVQVILSSPTAQSVPSNGQNQIGVEHIDLLEDDLEKDAILDDSMSFSFGRQHMPMSHSDLELIDSEKENEDFEEDNNNNGIEYLSDSDLERFDEERENRTQVADIQELDNDLKIITERKL

Columns and labels:
[1] = target: Mer3-Strep (full-length S. cerevisiae Mer3 with C-terminal 2xStrep-II tag) (Saccharomyces cerevisiae (SK1)) (UniProt P51979); test: SEC-MALS
[2] = target: T1, MBP-Mlh2; test: cross-linking
[3] = target: B4; test: cross-linking
[4] = target: T2, MBP-Mlh1/MBP-Mlh2 complex; test: cross-linking
[5] = target: T2, MBP-Mlh1/MBP-Mlh2 complex; test: pull-down
[6] = target: T3, MBP-Mlh1; test: cross-linking
[7] = target: B3; test: pull-down

## Mer3-Strep (full-length S. cerevisiae Mer3 with C-terminal 2xStrep-II tag) (from UniProt P51979 1-1187) (enzyme)
[1]
  stoichiometry N: 2

## B1
[2]
  binding result: binds
[3]
  binding result: binds

## B2
[4]
  binding result: binds

## B3
[5]
  binding result: binds

## B4
[6]
  binding result: binds

## B5
[7]
  binding result: binds

## B6
[7]
  binding result: binds
